Positions of bridges follow the written chain, without caps; N, C: chain ends. Non-standard residues stand in square brackets, D forms with d. No end group written: not given here. 2Nal = N[C@@H](Cc1ccc2ccccc2c1)C(=O)O; Gly(cPent) = N[C@H](C(=O)O)C1CCCC1; 4Pal = N[C@@H](Cc1ccncc1)C(=O)O; Agb = N=C(N)NCC[C@H](N)C(=O)O; Pen = CC(C)(S)[C@H](N)C(=O)O; Phg = N[C@H](C(=O)O)c1ccccc1; hCys = N[C@@H](CCS)C(=O)O
What follows are binders tested against Thrombospondin human platelet (Calbiochem, 605225) (human, UniProt P07996 19-1170) (assay: cell-based or functional assay).
Chain of Thrombospondin human platelet (Calbiochem, 605225) (P07996 19-1170 limits assumed): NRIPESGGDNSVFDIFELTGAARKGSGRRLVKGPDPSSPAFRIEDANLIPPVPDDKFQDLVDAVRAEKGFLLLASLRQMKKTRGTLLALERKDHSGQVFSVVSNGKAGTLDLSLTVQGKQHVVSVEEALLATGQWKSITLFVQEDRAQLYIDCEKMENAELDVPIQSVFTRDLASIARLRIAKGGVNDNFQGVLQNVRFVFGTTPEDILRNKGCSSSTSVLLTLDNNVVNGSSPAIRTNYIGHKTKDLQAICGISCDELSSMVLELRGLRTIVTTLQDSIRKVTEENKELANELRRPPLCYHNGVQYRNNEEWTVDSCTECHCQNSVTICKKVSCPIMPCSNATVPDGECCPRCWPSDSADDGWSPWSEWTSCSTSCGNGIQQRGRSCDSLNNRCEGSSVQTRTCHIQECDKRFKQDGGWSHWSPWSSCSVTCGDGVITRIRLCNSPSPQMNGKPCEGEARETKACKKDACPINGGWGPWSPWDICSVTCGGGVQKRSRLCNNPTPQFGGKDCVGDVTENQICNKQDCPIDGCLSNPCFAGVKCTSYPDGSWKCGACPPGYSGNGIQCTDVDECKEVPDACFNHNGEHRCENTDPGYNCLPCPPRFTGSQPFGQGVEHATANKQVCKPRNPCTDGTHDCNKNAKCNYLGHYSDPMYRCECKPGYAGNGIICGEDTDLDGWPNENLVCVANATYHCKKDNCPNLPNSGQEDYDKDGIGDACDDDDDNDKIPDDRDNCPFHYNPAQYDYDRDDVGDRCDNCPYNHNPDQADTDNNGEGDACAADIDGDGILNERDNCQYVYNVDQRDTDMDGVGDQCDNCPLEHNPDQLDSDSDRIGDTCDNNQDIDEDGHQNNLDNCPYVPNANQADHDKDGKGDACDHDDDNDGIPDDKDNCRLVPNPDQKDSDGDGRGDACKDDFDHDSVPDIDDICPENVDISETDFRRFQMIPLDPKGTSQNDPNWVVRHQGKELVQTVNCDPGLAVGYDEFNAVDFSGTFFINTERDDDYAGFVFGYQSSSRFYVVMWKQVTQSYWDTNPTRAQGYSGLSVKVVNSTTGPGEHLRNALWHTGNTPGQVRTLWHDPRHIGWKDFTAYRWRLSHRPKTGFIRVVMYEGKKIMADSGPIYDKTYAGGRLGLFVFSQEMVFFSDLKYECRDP

Row | IC50 for inhibition of cell adhesion (HUVEC to coated human TSP1) [nM] | Binder
1 | 30.9 | [2Nal]RCGRDW[Pen]RW[Gly(cPent)]C-NH2 (bridge 3-8, N-12; not fully specified (N-terminus, bridges)) [Peptide-139]
2 | 14.2 | [2Nal]RCGRDW[hCys]RW[Gly(cPent)]C-NH2 (bridge 3-8, N-12; not fully specified (N-terminus, bridges)) [Peptide-131]
3 | 11.6 | [2Nal]R[hCys]GRDW[hCys]RW[Gly(cPent)]C-NH2 (bridge 3-8, N-12; not fully specified (N-terminus, bridges)) [Peptide-127]
4 | 20 | [2Nal][Agb][hCys]G[Agb]NW[hCys]RW[Gly(cPent)]C-NH2 (disulfide 3-8; bridge N-12; not fully specified (N-terminus, bridges)) [Peptide-2]
5 | 8.4 | [2Nal]RCGRDWCRW[Gly(cPent)]C-NH2 (disulfide 3-8; bridge N-12; not fully specified (N-terminus, bridges)) [Peptide-128]
6 | 305 | [2Nal]R[hCys]GRDW[hCys]RW[Gly(cPent)]C-NH2 (linker 3-8 via acetone bridge (-S-CH2-CO-CH2-S-); bridge N-12; not fully specified (N-terminus, bridges)) [Peptide-125]
7 | 7 | [2Nal]R[hCys]GRDWCRW[Gly(cPent)]C-NH2 (bridge 3-8, N-12; not fully specified (N-terminus, bridges)) [Peptide-132]
8 | 125 | [2Nal]R[Pen]GRDW[hCys]RW[Gly(cPent)]C-NH2 (bridge 3-8, N-12; not fully specified (N-terminus, bridges)) [Peptide-133]
9 | 102 | [2Nal]R[hCys]GRDW[Pen]RW[Gly(cPent)]C-NH2 (disulfide 3-8; bridge N-12; not fully specified (N-terminus, bridges)) [Peptide-134]
10 | 23.6 | [2Nal]R[hCys]G[Agb]NW[hCys][4Pal]W[Gly(cPent)]C-NH2 (disulfide 3-8; bridge N-12; not fully specified (N-terminus, bridges)) [Peptide-5]
11 | 29.9 | [2Nal][Phg][hCys]G[Agb]NW[hCys]RW[Gly(cPent)]C-NH2 (disulfide 3-8; bridge N-12; not fully specified (N-terminus, bridges)) [Peptide-3]
12 | 17.5 | [2Nal]RSG[Agb]NWVRW[Gly(cPent)]C (bridge N-12; not fully specified (N-terminus, C-terminus, bridges); also: C-terminus amide-bonded to a linker (not defined)) [Peptide-115]
13 | 80.6 | [2Nal]R[Pen]GRDWCRW[Gly(cPent)]C-NH2 (bridge 3-8, N-12; not fully specified (N-terminus, bridges)) [Peptide-137]
14 | 10.8 | [2Nal]RCGRDW[hCys]RW[Gly(cPent)]C-NH2 (disulfide 3-8; bridge N-12; not fully specified (N-terminus, bridges)) [Peptide-126]
15 | 92.5 | [2Nal]RCGRDW[Pen]RW[Gly(cPent)]C-NH2 (disulfide 3-8; bridge N-12; not fully specified (N-terminus, bridges)) [Peptide-138]
16 | 18.6 | [2Nal]R[hCys]GRNW[hCys]RWVC-NH2 (disulfide 3-8; bridge N-12; not fully specified (N-terminus, bridges)) [Peptide-12]
17 | 208 | [2Nal]R[Pen]GRDW[hCys]RW[Gly(cPent)]C-NH2 (disulfide 3-8; bridge N-12; not fully specified (N-terminus, bridges)) [Peptide-135]
18 | 7.7 | [2Nal]RCGRDWCRW[Gly(cPent)]C-NH2 (bridge 3-8, N-12; not fully specified (N-terminus, bridges)) [Peptide-130]
19 | 162 | [2Nal]R[hCys]GRDW[Pen]RW[Gly(cPent)]C-NH2 (bridge 3-8, N-12; not fully specified (N-terminus, bridges)) [Peptide-136]
20 | 33.8 | [2Nal]R[hCys]G[Agb]NW[hCys][Phg]W[Gly(cPent)]C-NH2 (disulfide 3-8; bridge N-12; not fully specified (N-terminus, bridges)) [Peptide-4]
21 | 43.7 | [2Nal]R[hCys]GRDWCRW[Gly(cPent)]C-NH2 (disulfide 3-8; bridge N-12; not fully specified (N-terminus, bridges)) [Peptide-129]
22 | 26 | [2Nal]R[hCys]GRDW[hCys]RW[Gly(cPent)]C-NH2 (disulfide 3-8; bridge N-12; not fully specified (N-terminus, bridges)) [Peptide-11]
23 | 12.6 | [2Nal]R[hCys]G[Agb]NW[hCys]RW[Gly(cPent)]C-NH2 (disulfide 3-8; bridge N-12; not fully specified (N-terminus, bridges)) [Peptide-1]
24 | 31.1 | [2Nal]R[hCys]GRNW[hCys]VW[Gly(cPent)]C-NH2 (disulfide 3-8; bridge N-12; not fully specified (N-terminus, bridges)) [Peptide-7]
